Results reported in US20250170316A1.

Biological target: complement factor H present in serum (human) (UniProt P08603)
Assay: cell-based or functional assay

UniProt P08603, sequence (P08603 19-1231 limits assumed): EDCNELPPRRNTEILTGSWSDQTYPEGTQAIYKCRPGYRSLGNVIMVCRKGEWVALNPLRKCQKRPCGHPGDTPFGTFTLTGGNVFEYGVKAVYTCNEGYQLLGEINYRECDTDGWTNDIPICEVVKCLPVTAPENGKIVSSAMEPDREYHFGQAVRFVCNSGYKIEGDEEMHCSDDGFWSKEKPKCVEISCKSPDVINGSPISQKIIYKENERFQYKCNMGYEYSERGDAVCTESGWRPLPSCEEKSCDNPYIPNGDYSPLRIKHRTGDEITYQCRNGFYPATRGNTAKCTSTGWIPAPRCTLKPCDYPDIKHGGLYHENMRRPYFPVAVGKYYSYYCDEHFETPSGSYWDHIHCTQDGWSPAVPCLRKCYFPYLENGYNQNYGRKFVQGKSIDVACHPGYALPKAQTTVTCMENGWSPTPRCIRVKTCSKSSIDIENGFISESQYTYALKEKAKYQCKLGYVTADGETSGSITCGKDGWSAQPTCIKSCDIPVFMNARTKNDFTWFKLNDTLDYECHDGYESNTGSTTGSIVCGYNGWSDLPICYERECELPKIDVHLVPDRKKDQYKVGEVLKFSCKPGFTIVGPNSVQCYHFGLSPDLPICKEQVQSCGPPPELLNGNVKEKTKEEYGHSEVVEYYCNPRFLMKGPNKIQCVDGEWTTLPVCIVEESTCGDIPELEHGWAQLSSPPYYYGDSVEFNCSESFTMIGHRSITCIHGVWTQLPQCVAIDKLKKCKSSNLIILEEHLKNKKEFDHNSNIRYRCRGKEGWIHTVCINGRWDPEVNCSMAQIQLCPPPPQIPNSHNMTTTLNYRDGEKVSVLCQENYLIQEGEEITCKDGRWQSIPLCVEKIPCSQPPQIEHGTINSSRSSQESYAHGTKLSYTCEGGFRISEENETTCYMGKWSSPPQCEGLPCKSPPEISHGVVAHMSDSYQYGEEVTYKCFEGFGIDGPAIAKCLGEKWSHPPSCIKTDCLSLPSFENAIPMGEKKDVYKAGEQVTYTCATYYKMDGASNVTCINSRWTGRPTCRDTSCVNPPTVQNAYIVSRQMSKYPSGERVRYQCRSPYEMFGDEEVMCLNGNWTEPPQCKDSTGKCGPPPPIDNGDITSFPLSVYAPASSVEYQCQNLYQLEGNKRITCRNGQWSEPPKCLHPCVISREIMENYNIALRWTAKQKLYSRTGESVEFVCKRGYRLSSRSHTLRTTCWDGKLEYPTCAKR

PspCN (residues 37-140 of pneumococcal surface protein C, PspC, of Streptococcus pneumoniae strain D39)
inhibition of acidified serum lysis of PNH-like (AET-treated) erythrocytes, IC50: 27 nM
